± gives the standard deviation of the averaged measurements.
B1: library; a variant is named by its letters at N, in order (parent)
chain: GCUGUCACCGGUGUAUUACCCUAGUGGUCGACCGGUCUGAUGAGUCUNNNNNNAGACGAAACAGC

How the values were obtained:
hypoxanthine [1] = variants of: B1; assay: FACS-Seq fitted mean relative fluorescence mCherry/BFP without ligand (log10 relative fluorescence); ligand: hypoxanthine (xanthine aptamer); higher = higher reporter protein expression; details: HEK293T, ligand present: no
Outline: (§1)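 Sorting into 6 bins by mCherry/BFP followed 48 h of incubation with or without ligand. The cells were enriched HEK293T libraries lentivirally bearing an mCherry reporter with the ribozyme switch and an EF1α-BFP marker, and bin genomic DNA was PCR-amplified, barcoded and sequenced on MiSeq. Fluorescence is the fitted normal mean of the bin counts. Means were fitted on log10(mCherry/BFP), scaled to five spiked-in control ribozymes.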

hypoxanthine [2] = variants of: B1; assay: normalized RNA/DNA level with ligand (relative to sTRSVctl = 100) (log10 (% of sTRSVctl)); ligand: hypoxanthine (xanthine aptamer); higher = less ribozyme self-cleavage, higher mRNA level; details: ligand concentration (+) RNA-Seq: 5 mM, HEK293T, reporter: mCherry (pCS4076), ligand present: yes
Protocol: (§2)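 Hammerhead (sTRSV) ribozyme switch libraries with a ligand aptamer grafted on stem I and a randomized N4-6 loop II, cloned into the 3' UTR of mCherry and transiently transfected into HEK293T cells; RNA-Seq 72 h post transfection with ligand added 1 h before transfection; RNA read count / plasmid DNA read count normalized to the non-cleaving sTRSVctl (x100), log10; sequences with >100 DNA reads. FACS-Seq: lentiviral library sorted into 6 bins after 48 h ligand, log-normal fit mean of mCherry/BFP scaled to controls. Printed sequences are partial switch sequences.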

hypoxanthine [3] = variants of: B1; assay: normalized RNA/DNA level without ligand (relative to sTRSVctl = 100) (log10 (% of sTRSVctl)); ligand: hypoxanthine (xanthine aptamer); higher = less ribozyme self-cleavage, higher mRNA level; details: HEK293T, reporter: mCherry (pCS4076), ligand present: no
Protocol: as §2

hypoxanthine [4] = variants of: B1; assay: FACS-Seq fitted mean relative fluorescence mCherry/BFP with ligand (log10 relative fluorescence); ligand: hypoxanthine (xanthine aptamer); ligand concentration (+) FACS-Seq: 5 mM; higher = higher reporter protein expression; details: HEK293T, ligand present: yes
Outline: as §1

Variant | FACS-Seq fitted mean (log10) (hypoxanthine [1]) | normalized RNA/DNA level with ligand (log10) (hypoxanthine [2]) | normalized RNA/DNA level without ligand (log10) (hypoxanthine [3]) | FACS-Seq fitted mean (log10) (hypoxanthine [4])
GCUGUCACCGGUGUAUUACCCUAGUGGUCGACCGGUCUGAUGAGUCUCCGGACAGACGAAACAGC | 0.196 ± 0.035 | 2 ± 0.05 | 1.79 ± 0.077 | 0.439 ± 0.041
GCUGUCACCGGUGUAUUACCCUAGUGGUCGACCGGUCUGAUGAGUCUCCGGAGAGACGAAACAGC | 0.0637 ± 0.015 | 1.86 ± 0.11 | 1.36 ± 0.11 | 0.573 ± 0.039
GCUGUCACCGGUGUAUUACCCUAGUGGUCGACCGGUCUGAUGAGUCUCCGGAAAGACGAAACAGC | 0.279 ± 0.013 | 1.91 ± 0.027 | 1.71 ± 0.044 | 0.1512 ± 0.00072
GCUGUCACCGGUGUAUUACCCUAGUGGUCGACCGGUCUGAUGAGUCUGCGGGAAGACGAAACAGC | 0.182 ± 0.017 | 1.97 ± 0.034 | 1.718 ± 0.012 | 0.591 ± 0.025
GCUGUCACCGGUGUAUUACCCUAGUGGUCGACCGGUCUGAUGAGUCUUCGCGUAGACGAAACAGC | 0.334 ± 0.04 | 1.9 ± 0.026 | 1.56 ± 0.048 | 0.509 ± 0.016
GCUGUCACCGGUGUAUUACCCUAGUGGUCGACCGGUCUGAUGAGUCUGCGGAUAGACGAAACAGC | 0.308 ± 0.01 | 1.863 ± 0.0028 | 1.48 ± 0.039 | 0.547 ± 0.08
GCUGUCACCGGUGUAUUACCCUAGUGGUCGACCGGUCUGAUGAGUCUGCGGACAGACGAAACAGC | 0.00746 ± 0.015 | 1.75 ± 0.046 | 1.31 ± 0.032 | 0.546 ± 0.037
GCUGUCACCGGUGUAUUACCCUAGUGGUCGACCGGUCUGAUGAGUCUGCGGAGAGACGAAACAGC | -0.112 ± 0.056 | 1.66 ± 0.054 | 1.24 ± 0.052 | 0.449 ± 0.1
GCUGUCACCGGUGUAUUACCCUAGUGGUCGACCGGUCUGAUGAGUCUGCGGAAAGACGAAACAGC | 0.328 ± 0.11 | 1.88 ± 0.033 | 1.53 ± 0.069 | 0.67 ± 0.06
GCUGUCACCGGUGUAUUACCCUAGUGGUCGACCGGUCUGAUGAGUCUCCGGGAAGACGAAACAGC | 0.607 ± 0.06 | 1.97 ± 0.022 | 1.82 ± 0.037 | 0.674 ± 0.071
GCUGUCACCGGUGUAUUACCCUAGUGGUCGACCGGUCUGAUGAGUCUGCGGCGAGACGAAACAGC | -0.49 ± 0.037 | 1.93 ± 0.045 | 1.514 ± 0.012 | -0.0806 ± 0.025
GCUGUCACCGGUGUAUUACCCUAGUGGUCGACCGGUCUGAUGAGUCUUCGGAGAGACGAAACAGC | -0.494 ± 0.057 | 1.8831 ± 0.00053 | 1.41 ± 0.064 | -0.522 ± 0.082
GCUGUCACCGGUGUAUUACCCUAGUGGUCGACCGGUCUGAUGAGUCUACGGACAGACGAAACAGC | 0.332 ± 0.11 | 1.92 ± 0.06 | 1.7 ± 0.029 | 0.565 ± 0.062
GCUGUCACCGGUGUAUUACCCUAGUGGUCGACCGGUCUGAUGAGUCUACGGAGAGACGAAACAGC | -0.0823 ± 0.0037 | 1.62 ± 0.031 | 1.12 ± 0.052 | 0.482 ± 0.12
GCUGUCACCGGUGUAUUACCCUAGUGGUCGACCGGUCUGAUGAGUCUACGGAAAGACGAAACAGC | 0.072 ± 0.016 | 1.891 ± 0.013 | 1.45 ± 0.034 | 0.327 ± 0.04
GCUGUCACCGGUGUAUUACCCUAGUGGUCGACCGGUCUGAUGAGUCUACGGAUAGACGAAACAGC | -0.0352 ± 0.029 | 1.7216 ± 0.0016 | 1.24 ± 0.068 | 0.537 ± 0.024
GCUGUCACCGGUGUAUUACCCUAGUGGUCGACCGGUCUGAUGAGUCUUCGGCGAGACGAAACAGC | 0.493 ± 0.023 | 1.982 ± 0.0021 | 1.8 ± 0.03 | 0.666 ± 0.025
GCUGUCACCGGUGUAUUACCCUAGUGGUCGACCGGUCUGAUGAGUCUACGCGGAGACGAAACAGC | -0.216 ± 0.014 | 1.6394 ± 0.00079 | 1.22 ± 0.012 | 0.465 ± 0.047
GCUGUCACCGGUGUAUUACCCUAGUGGUCGACCGGUCUGAUGAGUCUACGGCGAGACGAAACAGC | -0.0504 ± 0.0018 | 1.91 ± 0.025 | 1.42 ± 0.015 | 0.466 ± 0.082
GCUGUCACCGGUGUAUUACCCUAGUGGUCGACCGGUCUGAUGAGUCUCCGCUAAGACGAAACAGC | 0.42 ± 0.077 | 2.03 ± 0.053 | 1.827 ± 0.01 | 0.474 ± 0.034
GCUGUCACCGGUGUAUUACCCUAGUGGUCGACCGGUCUGAUGAGUCUACGCUGAGACGAAACAGC | 0.109 ± 0.026 | 1.91 ± 0.052 | 1.45 ± 0.031 | 0.566 ± 0.016

Reference: the supplement of paper PMC6757056
